The values below come from publication PMC12657763, “SH2-mediated steric occlusion of the C2 domain regulates autoinhibition of SHIP1 inositol 5-phosphatase” (The Journal of Biological Chemistry, 2025).

One may read the stoichiometry N as the number of molecules, sites or subunits per partner or assembly.

The labels stand for the following.
B1: mNG-SHIP1(FL) (enzyme, human, UniProt Q92835-2 1-1188, looked up)
chain: MVPCWNHGNITRSKAEELLSRTGKDGSFLVRASESISRAYALCVLYRNCVYTYRILPNEDDKFTVQASEGVSMRFFTKLDQLIEFYKKENMGLVTHLQYPVPLEEEDTGDDPEEDTESVVSPPELPPRNIPLTASSCEAKEVPFSNENPRATETSRPSLSETLFQRLQSMDTSGLPEEHLKAIQDYLSTQLAQDSEFVKTGSSSLPHLKKLTTLLCKELYGEVIRTLPSLESLQRLFDQQLSPGLRPRPQVPGEANPINMVSKLSQLTSLLSSIEDKVKALLHEGPESPHRPSLIPPVTFEVKAESLGIPQKMQLKVDVESGKLIIKKSKDGSEDKFYSHKKILQLIKSQKFLNKLVILVETEKEKILRKEYVFADSKKREGFCQLLQQMKNKHSEQPEPDMITIFIGTWNMGNAPPPKKITSWFLSKGQGKTRDDSADYIPHDIYVIGTQEDPLSEKEWLEILKHSLQEITSVTFKTVAIHTLWNIRIVVLAKPEHENRISHICTDNVKTGIANTLGNKGAVGVSFMFNGTSLGFVNSHLTSGSEKKLRRNQNYMNILRFLALGDKKLSPFNITHRFTHLFWFGDLNYRVDLPTWEAETIIQKIKQQQYADLLSHDQLLTERREQKVFLHFEEEEITFAPTYRFERLTRDKYAYTKQKATGMKYNLPSWCDRVLWKSYPLVHVVCQSYGSTSDIMTSDHSPVFATFEAGVTSQFVSKNGPGTVDSQGQIEFLRCYATLKTKSQTKFYLEFHSSCLESFVKSQEGENEEGSEGELVVKFGETLPKLKPIISDPEYLLDQHILISIKSSDSDESYGEGCIALRLEATETQLPIYTPLTHHGELTGHFQGEIKLQTSQGKTREKLYDFVKTERDESSGPKTLKSLTSHDPMKQWEVTSRAPPCSGSSITEIINPNYMGVGPFGPPMPLHVKQTLSPDQQPTAWSYDQPPKDSPLGPCRGESPPTPPGQPPISPKKFLPSTANRGLPPRTQESRPSDLGKNAGDTLPQEDLPLTKPEMFENPLYGSLSSFPKPAPRKDQESPKMPRKEPPPCPEPGILSPSIVLTKAQEADRGEGPGKQVPAPRLRSFTCSSSAEGRAAGGDKSQGKPKTPVSSQAPVPAKRPIKPSRSEINQQTPPTPTPRPPLPVKSPAVLHLQHSKGRDYRDNTELPHHGKHRPEEGPPGPLGRTAMQ

Where no end group is shown, it is not given here. [ ]: non-standard residue; d: D form. pY = N[C@@H](Cc1ccc(OP(=O)(O)O)cc1)C(=O)O

Data set [1] concerns the target mNG-SHIP1(ΔCTD) (human). As to the kind of experiment: single-molecule photobleaching (TIRF-M); mNG-tagged SHIP1 bound to supported lipid bilayers with conjugated pY peptides (2% PI(3,4,5)P3, 2% MCC-PE, 96% DOPC); steps of photobleaching counted.
Data set [2] addresses pY-ITIM peptide …(pY)SLIK, conjugated to the supported membrane. As to the kind of experiment: single-molecule TIRF-M dwell time on supported lipid bilayers; pY-ITIM peptide conjugated to the membrane (2% PI(3,4,5)P3, 2% MCC-PE, 96% DOPC); 20–50 pM mNG-SHIP1 in solution; 23 °C; single or double exponential fit of dwell times.
The target in data set [3] is mNG-SHIP1(ΔCTD) (human). As to the kind of experiment: single-molecule brightness distribution (TIRF-M); mNG-SHIP1 bound to pY peptides on supported lipid bilayers; 50 pM mNG-SHIP1(FL), 50 pM mNG-SHIP1(ΔCTD) or 20 pM mNG-mSHIP1(ΔCTD); particle brightness in the second frame of each trajectory.
Data set [4] deals with the molecule itself. As to the kind of experiment: single-molecule photobleaching (TIRF-M); mNG-tagged SHIP1 bound to supported lipid bilayers with conjugated pY peptides (2% PI(3,4,5)P3, 2% MCC-PE, 96% DOPC); steps of photobleaching counted.
Data set [5] deals with the molecule itself. As to the kind of experiment: SEC; purified mNG-SHIP1(RBD) on a size-exclusion chromatography column, multiple protein concentrations. (In general: Size exclusion chromatography separates by hydrodynamic size, large species first.)
The target in the data set “mNG-SHIP1(FL)” is B1. As to the kind of experiment: TIRF-M membrane recruitment (bulk mNG fluorescence on supported lipid bilayers); pY-ITIM peptide conjugated to the membrane (2% PI(3,4,5)P3, 2% MCC-PE, 96% DOPC); 100 pM mNG-SHIP1 in solution; membrane density normalized to mNG-SHIP1(FL). Particulars: both partners purified.

As for mNG-SHIP1(ΔCTD) (domain or fragment), the stoichiometry N with mNG-SHIP1(ΔCTD) (human) [1] is 2. In data set [2], the membrane dwell time τ1 is 0.359 s, the membrane dwell time τ1 (dimers only) turned out to be 1.79 s and the membrane dwell time τ2 was 1.83 s. In the data set with mNG-SHIP1(ΔCTD) (human) [3], the estimated fraction existing as dimers (corrected for mNG maturation) was 26% and the fraction of legitimate dimers with two mNG visible was 13%.

Regarding mNG-mSHIP1(ΔCTD) (domain or fragment), the membrane dwell time τ1 in data set [2] turned out to be 0.409 s.

As to B1, the “stoichiometry N” value in data set [4] was 2.

B2: mNG-SHIP1(RBD) (domain or fragment, human, UniProt Q92835-2 151-290, looked up)
chain: ATETSRPSLSETLFQRLQSMDTSGLPEEHLKAIQDYLSTQLAQDSEFVKTGSSSLPHLKKLTTLLCKELYGEVIRTLPSLESLQRLFDQQLSPGLRPRPQVPGEANPINMVSKLSQLTSLLSSIEDKVKALLHEGPESPH
notes: the clone is UniProt Q92835 isoform 2, missing V117; A GGGGG linker stands between mNG and SHIP1; 42.7 kDa for the monomeric species; also called SHIP1(RBD) fused to an mNeonGreen (mNG); his10-mNG-GGGGG-SHIP1 (RBD, 151–290 amino acids); source: E. coli BL21 (DE3) Star, purified (HiTrap chelating column with CoCl2, TEV cleavage, Superdex 200); not shown: His10, N-terminal, cleaved; mNeonGreen, …
As for B2, the “stoichiometry N” value in data set [5] is 2.

B3: pY-ITIM peptide CKTEAENTIT(pY)SLIK, conjugated to the supported membrane (peptide)
peptide: C(MCC‑PE lipid)KTEAENTIT[pY]SLIK
notes: cysteine added to the N terminus for coupling to the maleimide lipid; also called membrane-conjugated pY-ITIM peptides; pY-conjugated peptide; source: synthetic peptide (Elim Biopharmaceuticals), covalently coupled to MCC-PE lipids of the supported membrane
In the case of B3, the binding result with mNG-SHIP1(FL) is listed as “binds”.
